For assay [1], the target named is T1, NY-ESO-1 (human, UniProt P78358 1-180). As to the kind of experiment: SPR. (Surface plasmon resonance follows binding to a sensor surface in real time, without labels.)
Assay [2] addresses T1, NY-ESO-1. Nature of the assay: SPR. The source holds these as a separate data set.

Data on one molecule can be found in patent US20200270704A1 (published 2020).

Like-named read-outs stand apart in the source and are kept apart here.

The Kd is the equilibrium constant for the complex coming apart. Higher therefore signals weaker binding.

T1 sequence (P78358 whole entry): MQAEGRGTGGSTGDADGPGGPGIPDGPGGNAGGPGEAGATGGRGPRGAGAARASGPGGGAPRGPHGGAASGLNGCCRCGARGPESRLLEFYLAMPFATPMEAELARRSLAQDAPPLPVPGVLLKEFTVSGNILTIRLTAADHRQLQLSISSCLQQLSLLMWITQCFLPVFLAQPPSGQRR

B1: BC2-3G1 (antibody, V domains shown)
VH: QVQLQQSGPGLVKPSQTLSLTCAISGDSVSSNSAAWNWIRQSPSRGLEWLGRTYYRSKWYNDYAVSVKSRITINPDTSKNQFSLQLNSVTPEDTAVYYCARDLGIAAAGDFDYWGQGTLVTVSS
VL: EIVLTQSPATLSLSPGERATLSCRASQGVSSYLAWYQQKPGQAPRLLIYDASNRATGIPARFSGSGSGTDFTLTISSLEPEDFAVYYCHQGSNWPTFGGGTKVEI
Turning to B1, the dissociation constant (Kd) with NY-ESO-1 [1] and with NY-ESO-1 [2] was 37 nM each time.
